Test results taken from publication PMC3538841.

Key:
Experiment in all cases: negative stain EM reconstruction
[1] = molecular target: A/Netherlands/219/2003 (H7N7) HA (influenza A virus A/Netherlands/219/2003 (H7N7)) (UniProt Q6VMK1)
[2] = molecular target: A/Hong Kong/1/1968 (H3N2) HA (influenza A virus A/Hong Kong/1/1968 (H3N2)) (UniProt Q91MA7)
[3] = molecular target: A/South Carolina/1/1918 (H1N1) HA (influenza A virus A/South Carolina/1/1918 (H1N1)) (UniProt Q9WFX3)
[4] = molecular target: Wisc66/H9 HA (influenza A virus, Wisc66 (H9))

Measured: stoichiometry N (Fabs per HA trimer)

Fab CR9114
3: all assays above
